Target: Listeria monocytogenes c-di-AMP effector protein Lmo0553 (Listeria monocytogenes)
Experiment: crystal structure

Substance “Listeria monocytogenes c-di-AMP effector protein Lmo0553 (natural protein)” has a stoichiometry N of 2.
